B1: CASP6 (parent)
chain: TCADRDNLTRRFSDLGFEVKCFND
B2: FCHO1 (parent)
chain: FSDPSQSDPETKDFWLNMAALTEA

Variants of: B1
Test: protein stability index of a GFP-peptide fusion (GPS, HEK-293T) (PSI 1-6); higher = more stable
Settings: c terminus: a fixed tail appended
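Also: lentivirally expressed fusions sorted by FACS into six bins by GFP to DsRed ratio, PSI derived from sequencing read proportions per bin multiplied by bin number.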

Protein stability index, by site and new letter:
N7: Y 2.72
L8: A 3.38; C 2.99; D 4.06; E 4.42; F 2.45; G 3.66; H 3.28; I 3.31; K 3.6; M 3.03; N 2.38; P 3.52; Q 4.08; R 4.07; S 3.82; T 3.49; V 3.37; W 2.79; Y 2.91
T9: A 3.3; C 2.87; D 3.51; E 3.75; F 1.94; G 3.47; H 3.03; I 2.69; K 3.12; L 3.12; M 2.54; N 2.83; P 3.62; Q 3.49; R 3.36; S 3.25; V 3.58; W 2.34; Y 2.41
R10: A 3.59; C 2.59; D 3.96; E 3.83; F 2.98; G 3.48; H 3.16; I 2.48; K 3.75; L 3.07; M 2.83; N 3.56; P 3.39; Q 3.33; S 3.29; T 3.61; V 3.2; W 2.17; Y 2.65
R11: A 3.5; C 2.66; D 4.12; E 4.2; F 2.33; G 3.36; H 3.5; I 2.47; K 3.65; L 3.12; M 3.79; N 3.76; P 3.68; Q 3.5; S 3.57; T 3.2; V 2.76; W 1.62; Y 2.35
F12: A 4.07; C 3.08; D 4.23; E 4.7; G 3.81; H 4.07; I 2.98; K 4.1; L 3.33; M 3.42; N 4.35; P 4.32; Q 3.97; R 3.35; S 4.08; T 3.96; V 4.21; W 3.1; Y 3.45
S13: A 3.46; C 2.67; D 3.83; E 3.84; F 2.7; G 3; H 2.88; I 2.75; K 3.45; L 2.71; M 2.71; N 3.44; P 2.86; Q 3.65; R 2.98; T 2.58; V 2.32; W 2.36; Y 2.7
D14: A 3.23; C 2.91; E 3.34; F 2.07; G 3.46; H 2.4; I 2.79; K 3.36; L 2.5; M 1.97; N 3.8; P 2.47; Q 2.93; R 2.45; S 2.46; T 2.27; V 2.43; W 1.97; Y 2.46
L15: A 3.16; C 2.58; D 3.92; E 4.57; F 3.07; G 3.69; H 3.65; I 2.91; K 4.11; M 3.85; N 3.94; P 4.59; Q 3.43; R 3.27; S 4.02; T 4.13; V 3.15; W 2.75; Y 3.02
G16: A 2.99; C 3.18; D 3.33; E 3.83; F 2.03; H 2.84; I 1.92; K 2.68; L 1.89; M 2.14; N 3.61; P 3.54; Q 3.31; R 3.13; S 3.26; T 3.04; V 1.92; W 1.93; Y 2.27
F17: A 3.7; C 3.36; D 4.8; E 4.52; G 4.34; H 3.47; I 3.54; K 3.37; L 4.16; M 3.58; N 4.26; P 4.04; Q 4.29; R 2.95; S 4.17; T 3.75; V 3.61; W 2.44; Y 2.62
E18: A 3.25; C 2.76; D 3.86; F 1.78; G 2.87; H 2.48; I 2.65; K 3.3; M 2.22; N 3.44; P 3.49; Q 3.1; R 3.14; S 2.89; T 3.05; V 2.82; W 2.55; Y 2.29
V19: A 3.62; C 1.95; D 4.93; E 4.31; F 2.69; G 4.08; H 3.36; I 3.44; K 3.94; L 2.57; M 3.49; N 3.9; P 4.38; Q 3.85; R 3.48; S 3.8; T 4.24; W 2.76; Y 3.5
K20: A 3.76; C 2.75; D 4.14; E 3.6; F 2.87; G 3.54; H 2.89; I 2.42; L 3; M 2.57; N 3.75; P 3.58; Q 3.37; R 3.32; S 3.17; T 3.15; V 2.83; W 2.56; Y 2.2
C21: A 3.53; D 4.17; E 4.3; F 2.16; G 3.5; H 3.72; I 2.52; K 4.2; L 2.85; M 3.2; N 3.82; P 3.17; Q 4.05; R 3.72; S 4.01; T 3.98; V 2.67; W 2.63; Y 2.97
F22: A 4.54; C 3.83; D 4.95; E 4.46; G 3.37; H 3.86; I 3.9; K 4.72; L 3.89; M 3.96; N 4.58; P 4.32; Q 4.15; R 3.73; S 3.84; T 4.73; V 3.93; W 3.28; Y 3.98
N23: A 3.52; C 1.8; D 3.41; E 4.66; F 2.51; G 3.23; H 2.71; I 2.49; K 3.41; L 3.8; M 2.98; P 3.61; Q 3.12; R 3.89; S 3.66; T 3.28; V 2.81; W 1.41; Y 2.34
D24: A 2.21; C 2.41; E 2.94; F 2.11; G 2.66; H 2.95; I 1.87; K 3.02; L 2.17; M 2.6; N 2.97; P 3.24; Q 3.24; R 2.67; S 2.57; T 2.54; V 1.23; W 2.14; Y 2.04

Variants of: B2
Test: as above
Settings: c terminus: a fixed tail appended

Protein stability index of substitutions, site by site:
T11: R 2.69
A20: W 2.16
D3: Y 1.78; C 2.23
F14: G 4.83
S7: C 2.9
W15: F 4.3; M 4.48
S2: E 4.62
K12: V 2.86
T22: Y 2.82
